In the supplement of paper PMC7877785:
± gives the uncertainty stated by the source.

Test: self-splicing fitness, log relative to wild type (ln ratio); higher = more splicing; Tetrahymena group I intron in knt gene, E. coli kanamycin selection, DiMSum; sequences stand for … in CUCUCU…GGAGGGAAAAGUUAUCAGGCAUGCACCUGGUAGCUAGUCUUUAAACCAAUAGAUUGCAUCGGUUUAAAAGGCAAGACCGUCAAAUUGCGGGAAAGGGGUCAACAGCCGUUCAGUACCAAGUCUCAGGGGAAACUUUGAGAUGGCCUUGCAAAGGGUAUGGUAAUAAGCUGACGGACAUGGUCCUAACCACGCAGCCAAGUCCUAAGUCAACAGAUCUUCUGUUGAUAUGGAUGCAGUUCACAGACUAAAUGUCGGUCGGGGAAGAUGUAUUCUUCUCAUAAGAUAUAGUCGGACCUCUCCUUAAUGGGAGCUAGCGGAUGAAGUGAUGCAACACUGGAGCCGCUGGGAACUAAUUUGUAUGCGAAAGUAUAUUGAUUAGUUUUGGAGUACUCGUGGUCG
Procedure, shortened: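 Six replicate transformations of E. coli BL21(DE3) with a pET-22b(+) library were grown overnight at 37°C or 30°C. The library randomised all eight P1ex-region intron nucleotides, the intron lying in the knt kanamycin-resistance gene, and plates were LB agar with or without 25 μg/mL kanamycin plus 100 μg/mL carbenicillin, 50 μM IPTG and 0.2% rhamnose. Pooled colonies were amplicon-sequenced on an Illumina HiSeq 2500, and fitness is the DiMSum error-weighted combination of wild-type-normalised replicate fold changes, kanamycin versus none.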

Row | Sequence | self-splicing fitness (ln) (30 °C) | self-splicing fitness (ln) (37 °C)
1 | UUACAGCAAUAUUACGGGGA | -0.473 ± 0.076 | -0.871 ± 0.089
2 | UUACAGCAAUAUUACGGGGC | -3.36 ± 0.48 | -1.17 ± 0.45
3 | UUACAGCAAUAUUACGGGUC | -3.67 ± 0.19 | -2.51 ± 0.15
4 | UUACAGCAAUAUUACGGUUC | -1.97 ± 0.1 | -1.32 ± 0.11
5 | UUACAGCAAUAUUACGGUUU | -0.925 ± 0.046 | 0.136 ± 0.066
6 | UUACAGCAAUAUUACGUGUU | -3.43 ± 0.14 | -2.13 ± 0.13
7 | UUACAGCAAUAUUACGUUUA | -1.3 ± 0.11 | -0.512 ± 0.12
8 | UUAGAGCAAUAUUACGAGGA | -2.99 ± 0.34 | -0.578 ± 0.32
9 | UUAGAGCAAUAUUACGAUAA | -0.0105 ± 0.13 | 0.418 ± 0.18
10 | UUAGAGCAAUAUUACGAUAU | -1.72 ± 0.18 | -1.54 ± 0.23
11 | UUAGAGCAAUAUUACGCCUA | -0.268 ± 0.13 | -0.0554 ± 0.19
12 | UUAGAGCAAUAUUACGCGGC |  | -0.994 ± 0.26
13 | UUAGAGCAAUAUUACGGAUG | -3.13 ± 0.19 | -0.15 ± 0.15
14 | UUAGAGCAAUAUUACGGCAU | -2.51 ± 0.28 | -1.16 ± 0.23
15 | UUAGAGCAAUAUUACGGGAA | -2.25 ± 0.16 | -0.296 ± 0.16
16 | UUAGAGCAAUAUUACGGGGC | -3.24 ± 0.44 | 
17 | UUAGAGCAAUAUUACGGUCA | -1.7 ± 0.15 | -1.34 ± 0.14
18 | UUAGAGCAAUAUUACGUAAA | -2.69 ± 0.17 | 0.396 ± 0.13
19 | UUAGAGCAAUAUUACGUACA | -1.7 ± 0.26 | -1.51 ± 0.33
20 | UUAGAGCAAUAUUACGUACG | -0.844 ± 0.11 | -1.06 ± 0.17
21 | UUAGAGCAAUAUUACGUGUA | -3.04 ± 0.18 | -1.83 ± 0.17
22 | UUAGAGCAAUAUUACGUUAA | -1.9 ± 0.13 | -0.197 ± 0.15
23 | UUAUAGCAAUAUUACGAAGG | -3.25 ± 0.39 | -1.67 ± 0.33
24 | UUAUAGCAAUAUUACGAUGA | -0.778 ± 0.12 | 0.516 ± 0.14
25 | UUAUAGCAAUAUUACGCAAA | -2.85 ± 0.22 | -1.51 ± 0.16
26 | UUAUAGCAAUAUUACGCAGA | -2.06 ± 0.14 | -1.25 ± 0.099

Row | Sequence | self-splicing fitness (ln) (30 °C) | self-splicing fitness (ln) (37 °C)
27 | UUAUAGCAAUAUUACGCAGU |  | -1.61 ± 0.33
28 | UUAUAGCAAUAUUACGCCUC | -2.77 ± 0.39 | -1.59 ± 0.3
29 | UUAUAGCAAUAUUACGGACG | -1.25 ± 0.38 | -0.128 ± 0.34
30 | UUAUAGCAAUAUUACGGACU | -2.04 ± 0.35 | -0.965 ± 0.23
31 | UUAUAGCAAUAUUACGGGGU | -2.93 ± 0.28 | -2.15 ± 0.31
32 | UUAUAGCAAUAUUACGUCGA | -0.277 ± 0.13 | -0.308 ± 0.15
33 | UUAUAGCAAUAUUACGUCGG | -1.58 ± 0.27 | -0.309 ± 0.24
34 | UUAUAGCAAUAUUACGUGGA | -2.5 ± 0.41 | -1.23 ± 0.22
35 | UUAUAGCAAUAUUACGUGUU | -4.16 ± 0.33 | -3.11 ± 0.33
36 | UUAUAGCAAUAUUACGUUCC |  | -2.09 ± 0.48
37 | UUCAAGCAAUAUUACGACCG | -1.29 ± 0.14 | 0.147 ± 0.18
38 | UUCAAGCAAUAUUACGACUG | -2.38 ± 0.15 | -1.33 ± 0.12
39 | UUCAAGCAAUAUUACGAGCA | -1.01 ± 0.1 | -0.0614 ± 0.12
40 | UUCAAGCAAUAUUACGAGCC | -2.64 ± 0.32 | 
41 | UUCAAGCAAUAUUACGAUAG | -1.81 ± 0.14 | -0.986 ± 0.17
42 | UUCAAGCAAUAUUACGAUUA | -0.129 ± 0.08 | 0.183 ± 0.081
43 | UUCAAGCAAUAUUACGCACG | -1.11 ± 0.11 | -0.411 ± 0.14
44 | UUCAAGCAAUAUUACGCCCG | -1.16 ± 0.1 | -0.594 ± 0.15
45 | UUCAAGCAAUAUUACGCCCU | -1.34 ± 0.14 | -0.18 ± 0.16
46 | UUCAAGCAAUAUUACGCCUA | 0.0224 ± 0.061 | 0.182 ± 0.077
47 | UUCAAGCAAUAUUACGCGGU | -2.91 ± 0.17 | -1.96 ± 0.17
48 | UUCAAGCAAUAUUACGCUCC | -1.54 ± 0.16 | -1.86 ± 0.24
49 | UUCAAGCAAUAUUACGGCAG | -1.05 ± 0.077 | -0.45 ± 0.11
50 | UUCAAGCAAUAUUACGGCCG | -0.747 ± 0.14 | 0.0541 ± 0.16
51 | UUCAAGCAAUAUUACGGCUU | -2.58 ± 0.14 | -1.16 ± 0.14
52 | UUCAAGCAAUAUUACGGGAA | -1.32 ± 0.11 | -0.286 ± 0.094

Row | Sequence | self-splicing fitness (ln) (30 °C) | self-splicing fitness (ln) (37 °C)
53 | UUCAAGCAAUAUUACGGGUC | -4.54 ± 0.32 | -1.53 ± 0.14
54 | UUCAAGCAAUAUUACGUCAC | -3.57 ± 0.34 | -2.42 ± 0.39
55 | UUCAAGCAAUAUUACGUCGG | -0.722 ± 0.067 | -0.516 ± 0.081
56 | UUCAAGCAAUAUUACGUGAC | -4.47 ± 0.39 | -2.69 ± 0.27
57 | UUCAAGCAAUAUUACGUGAG | -0.36 ± 0.071 | 0.0932 ± 0.088
58 | UUCAAGCAAUAUUACGUGGA | -2.17 ± 0.17 | -2.52 ± 0.15
59 | UUCCAGCAAUAUUACGAGAG | -1.82 ± 0.093 | -0.571 ± 0.13
60 | UUCCAGCAAUAUUACGAGCG | -1.6 ± 0.096 | -1.26 ± 0.1
61 | UUCCAGCAAUAUUACGAGGC | -3.72 ± 0.35 | -2.58 ± 0.27
62 | UUCCAGCAAUAUUACGAUCC | -1.46 ± 0.45 | 
63 | UUCCAGCAAUAUUACGAUUA | -0.297 ± 0.12 | -0.0509 ± 0.1
64 | UUCCAGCAAUAUUACGCAAC | -3.02 ± 0.44 | 
65 | UUCCAGCAAUAUUACGCAAU | -2.02 ± 0.17 | -1.31 ± 0.14
66 | UUCCAGCAAUAUUACGCGAA | -1.64 ± 0.079 | -0.865 ± 0.089
67 | UUCCAGCAAUAUUACGGAUC | -3.83 ± 0.35 | -1.75 ± 0.16
68 | UUCCAGCAAUAUUACGGGAA | -2.87 ± 0.35 | -2.84 ± 0.34
69 | UUCCAGCAAUAUUACGGGAU | -3.25 ± 0.11 | -3.13 ± 0.19
70 | UUCCAGCAAUAUUACGGUAG | -0.0875 ± 0.065 | 0.438 ± 0.079
71 | UUCCAGCAAUAUUACGGUCU | -2.54 ± 0.33 | -2.13 ± 0.3
72 | UUCCAGCAAUAUUACGGUGU | -1.19 ± 0.092 | -1.1 ± 0.13
73 | UUCCAGCAAUAUUACGUGAG | 0.114 ± 0.062 | 0.597 ± 0.08
74 | UUCCAGCAAUAUUACGUUAG | -2.57 ± 0.17 | -0.904 ± 0.16
75 | UUCGAGCAAUAUUACGAAGC | -2.63 ± 0.33 | -1.91 ± 0.36
76 | UUCGAGCAAUAUUACGACAU | -3.097 ± 0.026 | -1.94 ± 0.038
77 | UUCGAGCAAUAUUACGACGA | -0.356 ± 0.3 | -0.0591 ± 0.21
